The source of these data is PMC1802561 (Nucleic Acids Research, 2006).

Series [1] has as its target T1, YoeB (native, untagged) (Escherichia coli, UniProt P69348 1-84).
T1 sequence: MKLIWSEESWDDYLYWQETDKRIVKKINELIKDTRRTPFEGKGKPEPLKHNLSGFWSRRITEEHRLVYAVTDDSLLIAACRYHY
The experiment in a line: EMSA. Background: Mobility shift assays separate free from complexed probe on a gel.

Series [2] has as its target T2, YoeB-His6 (Escherichia coli, UniProt P69348 1-84).
T2 sequence: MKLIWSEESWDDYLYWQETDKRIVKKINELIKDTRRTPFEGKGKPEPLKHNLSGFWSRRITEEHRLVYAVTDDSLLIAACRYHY
The experiment in a line: EMSA.

Series [3] has as its target T3, YefM-His6 (Escherichia coli, UniProt P69346 1-83).
T3 sequence: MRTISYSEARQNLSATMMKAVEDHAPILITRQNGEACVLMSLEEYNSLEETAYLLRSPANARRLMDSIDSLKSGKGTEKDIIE
The experiment in a line: EMSA.

Series [4] concerns the target T4, His10-YefM (Escherichia coli, UniProt P69346 1-83).
T4 sequence: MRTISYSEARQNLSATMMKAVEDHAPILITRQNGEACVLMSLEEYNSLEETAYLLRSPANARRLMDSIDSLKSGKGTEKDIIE
Nature of the series: EMSA.

The target in series [5] is T5, YefM (native, intein-cleaved) (Escherichia coli, UniProt P69346 1-83).
T5 sequence: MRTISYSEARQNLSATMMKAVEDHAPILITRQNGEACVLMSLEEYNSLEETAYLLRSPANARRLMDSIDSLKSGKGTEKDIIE
The experiment in a line: EMSA.

The target in series [6] is T6, YefM (native, intein-cleaved);YoeB (native, untagged) (Escherichia coli;Escherichia coli, UniProt P69346;P69348 1-83;1-84, |).
T6 sequence 1: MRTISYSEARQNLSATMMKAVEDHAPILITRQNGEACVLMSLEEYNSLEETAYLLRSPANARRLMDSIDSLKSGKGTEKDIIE
T6 sequence 2: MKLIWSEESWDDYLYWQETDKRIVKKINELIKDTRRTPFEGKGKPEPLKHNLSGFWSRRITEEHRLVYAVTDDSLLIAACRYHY
Nature of the series: EMSA.

Series [7] deals with the molecule itself. Nature of the series: cross-linking.
For series [8], the target named is T7, native YoeB (Escherichia coli, UniProt P69348 1-84).
T7 sequence: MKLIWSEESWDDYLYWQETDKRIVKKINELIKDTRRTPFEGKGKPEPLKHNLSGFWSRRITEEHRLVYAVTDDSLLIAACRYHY
Nature of the series: native gel or EMSA.

Series [9] concerns the target T8, YoeB-His6 (Escherichia coli, UniProt P69348 1-84).
T8 sequence: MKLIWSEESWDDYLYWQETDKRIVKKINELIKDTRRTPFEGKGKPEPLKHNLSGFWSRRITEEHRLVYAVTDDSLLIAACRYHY
Nature of the series: cross-linking.

B1: 99 bp yefM-yoeB promoter-operator (oligos 1/2) (dsDNA)
DNA 1: GTCGAGAATTCTCTACAAACTAATTAATAAATAGTTAATTAACGCTCATCATTGTACAATGAACTGTACAAAAGAGGAGATTGACATGGGATCCAGTGC
DNA 2: GCACTGGATCCCATGTCAATCTCCTCTTTTGTACAGTTCATTGTACAATGATGAGCGTTAATTAACTATTTATTAATTAGTTTGTAGAGAATTCTCGAC
Take B1: the binding result in [1] is reported as “no binding”; in [2] it was “no binding”; in series [3] it was “binds”; in [4], “binds”; in series [5], “binds”; in series [6], “binds”.

B2: native YefM (natural protein)
chain: MRTISYSEARQNLSATMMKAVEDHAPILITRQNGEACVLMSLEEYNSLEETAYLLRSPANARRLMDSIDSLKSGKGTEKDIIE
The stoichiometry N is the number of molecules, sites or subunits per partner or assembly. Take B2: in series [7], the “stoichiometry N” value stood at 2. Besides, the binding result in [8] is listed as “binds”.

B3: YefM of the YefM–YoeB–His6 complex (natural protein)
chain: MRTISYSEARQNLSATMMKAVEDHAPILITRQNGEACVLMSLEEYNSLEETAYLLRSPANARRLMDSIDSLKSGKGTEKDIIE
As to B3, the binding result in series [9] is listed as “binds”. Besides, in [7], the “stoichiometry N” value came to 2.
